For series [1], the target named is T1, native (+)-bornyl diphosphate synthase from sage (Salvia officinalis) (Salvia officinalis, UniProt O81192).
T1 construct: for the corresponding native enzymes
The note with it: read-out: Km (geranyl diphosphate), literature value; native enzyme; Croteau et al. 1989, 1990; cited from earlier work.

The target of series [2] is native 1,8-cineole synthase from sage (Salvia officinalis) (Salvia officinalis, UniProt O81191). The note with it: read-out: Km (geranyl diphosphate), literature value; native enzyme; Croteau et al., Arch. Biochem. Biophys. 309:184-192, 1994; cited from earlier work.
Substrate in series [3]: CC(C)=CCC/C(C)=C/COP(=O)(O)OP(=O)(O)O
Briefly: cells, lysate or membranes named. The note with it: other: recombinant SCS; 0.45 to 45 μM [1-3H]geranyl diphosphate, saturating divalent metal ion; likely somewhat high (contaminating phosphatases); pH 6.0; 31.0 °C.

Series [4] concerns the molecule itself. Briefly: calibrated gel permeation chromatography (Superdex S-200); single peak of activity at Mr ~200,000; self-association (homodimer).
Series [5] concerns the molecule itself. Briefly: gel permeation re-chromatography after thrombin removal of the GST tag; self-association (homodimer).

Usually Km stands for the substrate concentration at which the rate is half of its maximum.

As for `CC(C)=CCC/C(C)=C/COP(=O)(O)OP(=O)(O)O` [geranyl diphosphate], the figures for the Km in series [1] and in series [2] were 2 µM and 1.1 µM, respectively.

B1: Salvia officinalis 1,8-cineole synthase (SCS), recombinant, clone 3B5, SEQ ID No:4 (Salvia officinalis) (protein)
chain: RRTGGYQPTLWDFSTIQLFDSEYKEEKHLMRAAGMIAQVNMLLQEEVDSIQRLELIDDLRRLGISCHFDREIVEILNSKYYTNNEIDESDLYSTALRFKLLRQYDFSVSQEVFDCFKNDKGTDFKPSLVDDTRGLLQLYEASFLSAQGEETLHLARDFATKFLHKRVLVDKDINLLSSIERALELPTHWRVQMPNARSFIDAYKRRPDMNPTVLELAKLDFNMVQAQFQQELKEASRWWNSTGLVHELPFVRDRIVECYYWTTGVVERREHGYERIMLTKINALVTTIDDVFDIYGTLEELQLFTTAIQRWDIESMKQLPPYMQICYLALFNFVNEMAYDTLRDKGFNSTPYLRKAWVDLVESYLIEAKWYYMGHKPSLEEYMKNSWISIGGIPILSHLFFRLTDSIEEEDAESMHKYHDIVRASCTILRLADDMGTSLDEVERGDVPKSVQCYMNEKNASEEEAREHVRSLIDQTWKMMNKEMMTSSFSKYFVQVSANLARMAQWIYQHESDGFGMQHSLVNKMLRGLLFDRYE
Turning to B1, the Km in series [3] came out at 7.0 µM.

B2: pGEX fusion form of SBS (glutathione-S-transferase fusion of the sage (+)-bornyl diphosphate synthase preprotein) (enzyme)
chain: MSIISMNVSILSKPLNCLHNLERRPSKALLVPCTAPTARLRASCSSKLQEAHQIRRSGNYQPALWDSNYIQSLNTPYTEERHLDRKAELIVQVRILLKEKMEPVQQLELIHDLKYLGLSDFFQDEIKEILGVIYNEHKCFHNNEVEKMDLYFTALGFRLLRQHGFNISQDVFNCFKNEKGIDFKASLAQDTKGMLQLYEASFLLRKGEDTLELAREFATKCLQKKLDEGGNEIDENLLLWIRHSLDLPLHWRIQSVEARWFIDAYARRPDMNPLIFELAKLNFNIIQATHQQELKDLSRWWSRLCFPEKLPFVRDRLVESFFWAVGMFEPHQHGYQRKMAATIIVLATVIDDIYDVYGTLDELELFTDTFKRWDTESITRLPYYMQLCYWGVHNYISDAAYDILKEHGFFCLQYLRKSVVDLVEAYFHEAKWYHSGYTPSLDEYLNIAKISVASPAIISPTYFTFANASHDTAVIDSLYQYHDILCLAGIILRLPDDLGTSYFELARGDVPKTIQCYMKETNASEEEAVEHVKFLIREAWKDMNTAIAAGYPFPDGMVAGAANIGRVAQFIYLHGDGFGVQHSKTYEHIAGLLFEPYA
As for B2, the binding result in series [4] is “binds”.

B3: SBS protein after thrombin removal of the glutathione-S-transferase fusion tag ((+)-bornyl diphosphate synthase preprotein) (enzyme)
chain: MSIISMNVSILSKPLNCLHNLERRPSKALLVPCTAPTARLRASCSSKLQEAHQIRRSGNYQPALWDSNYIQSLNTPYTEERHLDRKAELIVQVRILLKEKMEPVQQLELIHDLKYLGLSDFFQDEIKEILGVIYNEHKCFHNNEVEKMDLYFTALGFRLLRQHGFNISQDVFNCFKNEKGIDFKASLAQDTKGMLQLYEASFLLRKGEDTLELAREFATKCLQKKLDEGGNEIDENLLLWIRHSLDLPLHWRIQSVEARWFIDAYARRPDMNPLIFELAKLNFNIIQATHQQELKDLSRWWSRLCFPEKLPFVRDRLVESFFWAVGMFEPHQHGYQRKMAATIIVLATVIDDIYDVYGTLDELELFTDTFKRWDTESITRLPYYMQLCYWGVHNYISDAAYDILKEHGFFCLQYLRKSVVDLVEAYFHEAKWYHSGYTPSLDEYLNIAKISVASPAIISPTYFTFANASHDTAVIDSLYQYHDILCLAGIILRLPDDLGTSYFELARGDVPKTIQCYMKETNASEEEAVEHVKFLIREAWKDMNTAIAAGYPFPDGMVAGAANIGRVAQFIYLHGDGFGVQHSKTYEHIAGLLFEPYA
Turning to B3, in series [5], the binding result is “binds”.

The values are drawn from patent US5891697A, “Monoterpene synthases from common sage (Salvia officinalis)” (Washington State University Research Foundation, priority 1997, dated 1999).
